Reference: PMC8298264, “Function of cofactor Akirin2 in the regulation of gene expression in model human neutrophil-like HL60 cells” (Bioscience Reports, 2021)

B1: sp¦Q9UFN0¦NPS3A_HUMAN (protein, UniProt Q9UFN0 1-247, looked up)
Protein NipSnap homolog 3A: MLVLRSALTRALASRTLAPQMCSSFATGPRQYDGIFYEFRSYYLKPSKMNEFLENFEKNAHLRTAHSELVGYWSVEFGGRMNTVFHIWKYDNFAHRTEVRKALAKDKEWQEQFLIPNLALIDKQESEITYLVPWCKLEKPPKEGVYELATFQMKPGGPALWGDAFKRAVHAHVNLGYTKLVGVFHTEYGALNRVHVLWWNESADSRAAGRHKSHEDPRVVAAVRESVNYLVSQQNMLLIPTSFSPLK
B2: sp¦Q9H0A0¦NAT10_HUMAN (protein, UniProt Q9H0A0 1-1025, looked up)
RNA cytidine acetyltransferase: MHRKKVDNRIRILIENGVAERQRSLFVVVGDRGKDQVVILHHMLSKATVKARPSVLWCYKKELGFSSHRKKRMRQLQKKIKNGTLNIKQDDPFELFIAATNIRYCYYNETHKILGNTFGMCVLQDFEALTPNLLARTVETVEGGGLVVILLRTMNSLKQLYTVTMDVHSRYRTEAHQDVVGRFNERFILSLASCKKCLVIDDQLNILPISSHVATMEALPPQTPDESLGPSDLELRELKESLQDTQPVGVLVDCCKTLDQAKAVLKFIEGISEKTLRSTVALTAARGRGKSAALGLAIAGAVAFGYSNIFVTSPSPDNLHTLFEFVFKGFDALQYQEHLDYEIIQSLNPEFNKAVIRVNVFREHRQTIQYIHPADAVKLGQAELVVIDEAAAIPLPLVKSLLGPYLVFMASTINGYEGTGRSLSLKLIQQLRQQSAQSQVSTTAENKTTTTARLASARTLYEVSLQESIRYAPGDAVEKWLNDLLCLDCLNITRIVSGCPLPEACELYYVNRDTLFCYHKASEVFLQRLMALYVASHYKNSPNDLQMLSDAPAHHLFCLLPPVPPTQNALPEVLAVIQVCLEGEISRQSILNSLSRGKKASGDLIPWTVSEQFQDPDFGGLSGGRVVRIAVHPDYQGMGYGSRALQLLQMYYEGRFPCLEEKVLETPQEIHTVSSEAVSLLEEVITPRKDLPPLLLKLNERPAERLDYLGVSYGLTPRLLKFWKRAGFVPVYLRQTPNDLTGEHSCIMLKTLTDEDEADQGGWLAAFWKDFRRRFLALLSYQFSTFSPSLALNIIQNRNMGKPAQPALSREELEALFLPYDLKRLEMYSRNMVDYHLIMDMIPAISRIYFLNQLGDLALSAAQSALLLGIGLQHKSVDQLEKEIELPSGQLMGLFNRIIRKVVKLFNEVQEKAIEEQMVAAKDVVMEPTMKTLSDDLDEAAKEFQEKHKKEVGKLKSMDLSEYIIRGDDEEWNEVLNKAGPNASIISLKSDKKRKLEAKQEPKQSKKLKNRETKNKKDMKLKRKK
B3: sp¦O75533¦SF3B1_HUMAN (protein, UniProt O75533 1-1304, looked up)
Splicing factor 3B subunit 1: MAKIAKTHEDIEAQIREIQGKKAALDEAQGVGLDSTGYYDQEIYGGSDSRFAGYVTSIAATELEDDDDDYSSSTSLLGQKKPGYHAPVALLNDIPQSTEQYDPFAEHRPPKIADREDEYKKHRRTMIISPERLDPFADGGKTPDPKMNARTYMDVMREQHLTKEEREIRQQLAEKAKAGELKVVNGAAASQPPSKRKRRWDQTADQTPGATPKKLSSWDQAETPGHTPSLRWDETPGRAKGSETPGATPGSKIWDPTPSHTPAGAATPGRGDTPGHATPGHGGATSSARKNRWDETPKTERDTPGHGSGWAETPRTDRGGDSIGETPTPGASKRKSRWDETPASQMGGSTPVLTPGKTPIGTPAMNMATPTPGHIMSMTPEQLQAWRWEREIDERNRPLSDEELDAMFPEGYKVLPPPAGYVPIRTPARKLTATPTPLGGMTGFHMQTEDRTMKSVNDQPSGNLPFLKPDDIQYFDKLLVDVDESTLSPEEQKERKIMKLLLKIKNGTPPMRKAALRQITDKAREFGAGPLFNQILPLLMSPTLEDQERHLLVKVIDRILYKLDDLVRPYVHKILVVIEPLLIDEDYYARVEGREIISNLAKAAGLATMISTMRPDIDNMDEYVRNTTARAFAVVASALGIPSLLPFLKAVCKSKKSWQARHTGIKIVQQIAILMGCAILPHLRSLVEIIEHGLVDEQQKVRTISALAIAALAEAATPYGIESFDSVLKPLWKGIRQHRGKGLAAFLKAIGYLIPLMDAEYANYYTREVMLILIREFQSPDEEMKKIVLKVVKQCCGTDGVEANYIKTEILPPFFKHFWQHRMALDRRNYRQLVDTTVELANKVGAAEIISRIVDDLKDEAEQYRKMVMETIEKIMGNLGAADIDHKLEEQLIDGILYAFQEQTTEDSVMLNGFGTVVNALGKRVKPYLPQICGTVLWRLNNKSAKVRQQAADLISRTAVVMKTCQEEKLMGHLGVVLYEYLGEEYPEVLGSILGALKAIVNVIGMHKMTPPIKDLLPRLTPILKNRHEKVQENCIDLVGRIADRGAEYVSAREWMRICFELLELLKAHKKAIRRATVNTFGYIAKAIGPHDVLATLLNNLKVQERQNRVCTTVAIAIVAETCSPFTVLPALMNEYRVPELNVQNGVLKSLSFLFEYIGEMGKDYIYAVTPLLEDALMDRDLVHRQTASAVVQHMSLGVYGFGCEDSLNHLLNYVWPNVFETSPHVIQAVMGALEGLRVAIGPCRMLQYCLQGLFHPARKVRDVYWKIYNSIYIGSQDALIAHYPRIYNDDKNTYIRYELDYIL
B4: sp¦P33176¦KINH_HUMAN (protein, UniProt P33176 2-963, looked up)
Kinesin-1 heavy chain: ADLAECNIKVMCRFRPLNESEVNRGDKYIAKFQGEDTVVIASKPYAFDRVFQSSTSQEQVYNDCAKKIVKDVLEGYNGTIFAYGQTSSGKTHTMEGKLHDPEGMGIIPRIVQDIFNYIYSMDENLEFHIKVSYFEIYLDKIRDLLDVSKTNLSVHEDKNRVPYVKGCTERFVCSPDEVMDTIDEGKSNRHVAVTNMNEHSSRSHSIFLINVKQENTQTEQKLSGKLYLVDLAGSEKVSKTGAEGAVLDEAKNINKSLSALGNVISALAEGSTYVPYRDSKMTRILQDSLGGNCRTTIVICCSPSSYNESETKSTLLFGQRAKTIKNTVCVNVELTAEQWKKKYEKEKEKNKILRNTIQWLENELNRWRNGETVPIDEQFDKEKANLEAFTVDKDITLTNDKPATAIGVIGNFTDAERRKCEEEIAKLYKQLDDKDEEINQQSQLVEKLKTQMLDQEELLASTRRDQDNMQAELNRLQAENDASKEEVKEVLQALEELAVNYDQKSQEVEDKTKEYELLSDELNQKSATLASIDAELQKLKEMTNHQKKRAAEMMASLLKDLAEIGIAVGNNDVKQPEGTGMIDEEFTVARLYISKMKSEVKTMVKRCKQLESTQTESNKKMEENEKELAACQLRISQHEAKIKSLTEYLQNVEQKKRQLEESVDALSEELVQLRAQEKVHEMEKEHLNKVQTANEVKQAVEQQIQSHRETHQKQISSLRDEVEAKAKLITDLQDQNQKMMLEQERLRVEHEKLKATDQEKSRKLHELTVMQDRREQARQDLKGLEETVAKELQTLHNLRKLFVQDLATRVKKSAEIDSDDTGGSAAQKQKISFLENNLEQLTKVHKQLVRDNADLRCELPKLEKRLRATAERVKALESALKEAKENASRDRKRYQQEVDRIKEAVRSKNMARRGHSAQIAKPIRPGQHPAASPTHPSAIRGGGAFVQNSQPVAVRGGGGKQV
B5: sp¦Q96HE7¦ERO1A_HUMAN (protein, UniProt Q96HE7 24-468, looked up)
ERO1-like protein alpha: EEQPPETAAQRCFCQVSGYLDDCTCDVETIDRFNNYRLFPRLQKLLESDYFRYYKVNLKRPCPFWNDISQCGRRDCAVKPCQSDEVPDGIKSASYKYSEEANNLIEECEQAERLGAVDESLSEETQKAVLQWTKHDDSSDNFCEADDIQSPEAEYVDLLLNPERYTGYKGPDAWKIWNVIYEENCFKPQTIKRPLNPLASGQGTSEENTFYSWLEGLCVEKRAFYRLISGLHASINVHLSARYLLQETWLEKKWGHNITEFQQRFDGILTEGEGPRRLKNLYFLYLIELRALSKVLPFFERPDFQLFTGNKIQDEENKMLLLEILHEIKSFPLHFDENSFFAGDKKEAHKLKEDFRLHFRNISRIMDCVGCFKCRLWGKLQTQGLGTALKILFSEKLIANMPESGPSYEFHLTRQEIVSLFNAFGRISTSVKELENFRNLLQNIH
B6: sp¦Q92990¦GLMN_HUMAN (protein, UniProt Q92990 2-594, looked up)
Glomulin: AVEELQSIIKRCQILEEQDFKEEDFGLFQLAGQRCIEEGHTDQLLEIIQNEKNKVIIKNMGWNLVGPVVRCLLCKDKEDSKRKVYFLIFDLLVKLCNPKELLLGLLELIEEPSGKQISQSILLLLQPLQTVIQKLHNKAYSIGLALSTLWNQLSLLPVPYSKEQIQMDDYGLCQCCKALIEFTKPFVEEVIDNKENSLENEKLKDELLKFCFKSLKCPLLTAQFFEQSEEGGNDPFRYFASEIIGFLSAIGHPFPKMIFNHGRKKRTWNYLEFEEEENKQLADSMASLAYLVFVQGIHIDQLPMVLSPLYLLQFNMGHIEVFLQRTEESVISKGLELLENSLLRIEDNSLLYQYLEIKSFLTVPQGLVKVMTLCPIETLRKKSLAMLQLYINKLDSQGKYTLFRCLLNTSNHSGVEAFIIQNIKNQIDMSLKRTRNNKWFTGPQLISLLDLVLFLPEGAETDLLQNSDRIMASLNLLRYLVIKDNENDNQTGLWTELGNIENNFLKPLHIGLNMSKAHYEAEIKNSQEAQKSKDLCSITVSGEEIPNMPPEMQLKVLHSALFTFDLIESVLARVEELIEIKTKSTSEENIGIK

System: human HL60 cells
Experiment: SWATH-MS proteomics, differential protein representation, akirin2 KO vs WT HL60 cells
Type: cell-based
Conditions: SWATH-MS, akirin2 KO vs WT HL60 cells, under-represented in KO
Summary of the method: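 First, proteins from wild-type and knockout cells are digested with trypsin by FASP. Next, pooled IDA runs generate a reference ion library. Then six samples of 5 µg each are acquired by data-independent SWATH, and protein areas are normalized to the summed area of all detected proteins.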

Row | Molecule | Fold Change | Log (Fold Change)
1 | B1 | 0.7109 | -0.1482
2 | B2 | 0.7033 | -0.1528
3 | B3 | 0.7121 | -0.1475
4 | B4 | 0.7087 | -0.1495
5 | B5 | 0.7045 | -0.1521

Same assay, conditions: akirin2 KO vs WT HL60 cells; sheet "Under-represented in KO"

Row | Molecule | Fold Change | Log (Fold Change)
6 | B6 | 0.3264 | -0.4863
